{"source": "patent US20230158165", "key": {"[1]": {"test_system": "PEG12 construct peptide (Peg12-Val-Cit-Tregitope-Nle), before addition of MPA and HSA"}, "[2]": {"test_system": "PEG2 construct peptide (KKKK-Peg2-Val-Cit-Tregitope-Nle), before addition of MPA and HSA"}}}
{"substance": "Recombinant human Cathepsin B (catalog 953-CY of R&D Systems)", "values": [{"measurement": "cleavage of the Val-Cit site, evaluated by mass spec", "setting": "[1]", "result": "For the PEG12 product, successful cleavage is demonstrated"}, {"measurement": "cleavage of the Val-Cit site, evaluated by mass spec", "setting": "[2]", "result": "the PEG2 peptide did not have successful cleavage, and further modification of the Cathepsin B protocol did not produce successful cleavage"}]}
